From patent US20150344570A1 (published 2015)

T1: FcγRIIa H (human, UniProt P12318 34-217)
T1 construct: extracellular domain; also called FcγRIIa type H; 2aH
T1 sequence (looked up): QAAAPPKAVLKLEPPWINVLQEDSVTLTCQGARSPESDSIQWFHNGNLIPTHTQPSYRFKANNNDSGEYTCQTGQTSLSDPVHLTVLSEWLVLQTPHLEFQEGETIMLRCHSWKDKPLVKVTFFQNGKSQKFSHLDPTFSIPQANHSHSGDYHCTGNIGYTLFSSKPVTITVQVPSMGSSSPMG

T2: FcγRIIb (human, UniProt P31994 43-217)
T2 construct: extracellular domain; also called 2b; FcgRIIb
T2 sequence (looked up): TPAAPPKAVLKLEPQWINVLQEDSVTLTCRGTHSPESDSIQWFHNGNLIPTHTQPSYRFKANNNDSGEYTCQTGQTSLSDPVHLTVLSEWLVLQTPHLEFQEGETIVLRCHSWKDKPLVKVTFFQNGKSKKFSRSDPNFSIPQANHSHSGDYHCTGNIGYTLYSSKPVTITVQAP


What was measured:
FcγRIIa H [1] = molecular target: T1, FcγRIIa H; assay: ratio of He/Con_2aH to He/Con_2b (FcγRIIb); SPR
FcγRIIa H [2] = molecular target: T1, FcγRIIa H; assay: SPR (Biacore), captured antibody, FcγR as analyte; GpH7-A5/GpH7-B3/GpL16-k0 = 100
Protocol: (§1) The heterodimerized antibodies He Abs in which one of the H chains was introduced with an alteration were assayed for their binding activities to each activating FcγR and inhibitory FcγR according to the method described in Example 4. […] The activating FcγRs in FIGS. 26, 27, 28, and 29 are FcγRIa, FcγRIIa (R), FcγRIIa (H), and FcγRIIIa, respectively.
(§2) Analysis of interaction between objective antibody and the FcγR was carried out using Biacore T100 (GE Healthcare). HBS-EP+ (GE Healthcare) was used as the running buffer, and the measurement temperature was set to 25° C. Chips produced by immobilizing the antigen peptide by the amine coupling method to a Series S Sencor Chip CM5 (GE Healthcare), or alternatively, chips produced by allowing preliminarily biotinylated antigen peptides to interact with and immobilize onto a Series S Sensor Chip SA (certified) (GE Healthcare) were used. Antibodies of interest were captured onto an antigen peptide-immobilized chip, and allowed to interact to each FcγR diluted with running buffer. To regenerate and repeatedly use the chip, the antibodies captured on the chip were washed off by reacting 10 mM glycine-HCl, pH 1.5.

FcγRIIb = molecular target: T2, FcγRIIb; assay: as above
Protocol: as §1, §2

[3] = molecular target: T3, FcγRIIIa extracellular domain with C-terminal His tag (human, UniProt P08637 17-208); assay: SPR (Biacore); He/Con_3a divided by He/Con_2b (FcγRIIIa against FcγRIIb)
T3 construct: extracellular domain; also called FcgRIIIa; 3a
Protocol: as §1, §2

[4] = molecular target: T3, FcγRIIIa extracellular domain with …; assay: SPR (Biacore), antibody captured on antigen peptide chip, FcγR as analyte; GpH7-A5/GpH7-B3/GpL16-k0 = 100
Protocol: as §1, §2

T3 sequence (P08637 17-208): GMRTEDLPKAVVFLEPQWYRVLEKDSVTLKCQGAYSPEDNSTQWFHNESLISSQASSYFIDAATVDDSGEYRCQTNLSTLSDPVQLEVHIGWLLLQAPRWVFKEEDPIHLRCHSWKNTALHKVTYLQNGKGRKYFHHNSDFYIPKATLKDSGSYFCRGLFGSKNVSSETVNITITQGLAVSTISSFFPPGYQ

Binder	He_2aH/2b (IIaH/IIb ratio) (FcγRIIa H [1])	He/Con_2aH (relative binding) (FcγRIIa H [2]) [%]	He/Con_2b (relative binding) (FcγRIIb) [%]	He_3a/2b (IIIa/IIb) [3] [ratio]	He/Con_3a (relative binding activity) [4]
GpH7-A5/GpH7-B3 variant S298_10E/GpL16-k0 (antibody, human IgG1, kappa, Heterodimerized anti-glypican-3 IgG1 (He Ab); mutation in the B3 H chain only; also called He Ab) heavy 1: not shown heavy 2: not shown light: DIVMTQSPLSLPVTPGEPASISCQASESLVHSNRNTYLHWYLQKPGQSPQLLIYKVSNRFSGVPDRFSGSGSGTDFTLKISRVEAEDVGVYYCSQNTHVPPTFGQGTKVEIERTVAAPSVFIFPPSDEQLKSGTASVVCLLNNFYPREAKVQWKVDNALQSGNSQESVTEQDSKDSTYSLSSTLTLSKADYEKHKVYACEVTHQGLSSPVTKSFNRGEC	1.22	58	47.6	–	–
GpH7-A5/GpH7-B3 variant S298_14T/GpL16-k0 (antibody, human IgG1, kappa, Heterodimerized anti-glypican-3 IgG1 (He Ab); mutation in the B3 H chain only; also called He Ab) heavy 1: not shown heavy 2: not shown light: DIVMTQSPLSLPVTPGEPASISCQASESLVHSNRNTYLHWYLQKPGQSPQLLIYKVSNRFSGVPDRFSGSGSGTDFTLKISRVEAEDVGVYYCSQNTHVPPTFGQGTKVEIERTVAAPSVFIFPPSDEQLKSGTASVVCLLNNFYPREAKVQWKVDNALQSGNSQESVTEQDSKDSTYSLSSTLTLSKADYEKHKVYACEVTHQGLSSPVTKSFNRGEC	1.26	98.5	77.9	–	–
GpH7-A5/GpH7-B3 variant Y300_01G/GpL16-k0 (antibody, human IgG1, kappa, Heterodimerized anti-glypican-3 IgG1 (He Ab); mutation in the B3 H chain only; also called He Ab) heavy 1: not shown heavy 2: not shown light: DIVMTQSPLSLPVTPGEPASISCQASESLVHSNRNTYLHWYLQKPGQSPQLLIYKVSNRFSGVPDRFSGSGSGTDFTLKISRVEAEDVGVYYCSQNTHVPPTFGQGTKVEIERTVAAPSVFIFPPSDEQLKSGTASVVCLLNNFYPREAKVQWKVDNALQSGNSQESVTEQDSKDSTYSLSSTLTLSKADYEKHKVYACEVTHQGLSSPVTKSFNRGEC	1.54	74.4	48.4	–	–
GpH7-A5/GpH7-B3 variant S298_16H/GpL16-k0 (antibody, human IgG1, kappa, Heterodimerized anti-glypican-3 IgG1 (He Ab); mutation in the B3 H chain only; also called He Ab) heavy 1: not shown heavy 2: not shown light: DIVMTQSPLSLPVTPGEPASISCQASESLVHSNRNTYLHWYLQKPGQSPQLLIYKVSNRFSGVPDRFSGSGSGTDFTLKISRVEAEDVGVYYCSQNTHVPPTFGQGTKVEIERTVAAPSVFIFPPSDEQLKSGTASVVCLLNNFYPREAKVQWKVDNALQSGNSQESVTEQDSKDSTYSLSSTLTLSKADYEKHKVYACEVTHQGLSSPVTKSFNRGEC	1.29	82.1	63.5	–	–
GpH7-A5/GpH7-B3 variant Y300_03V/GpL16-k0 (antibody, human IgG1, kappa, Heterodimerized anti-glypican-3 IgG1 (He Ab); mutation in the B3 H chain only; also called He Ab) heavy 1: not shown heavy 2: not shown light: DIVMTQSPLSLPVTPGEPASISCQASESLVHSNRNTYLHWYLQKPGQSPQLLIYKVSNRFSGVPDRFSGSGSGTDFTLKISRVEAEDVGVYYCSQNTHVPPTFGQGTKVEIERTVAAPSVFIFPPSDEQLKSGTASVVCLLNNFYPREAKVQWKVDNALQSGNSQESVTEQDSKDSTYSLSSTLTLSKADYEKHKVYACEVTHQGLSSPVTKSFNRGEC	1.33	98	73.9	–	–
GpH7-A5/GpH7-B3 variant Y300_07I/GpL16-k0 (antibody, human IgG1, kappa, Heterodimerized anti-glypican-3 IgG1 (He Ab); mutation in the B3 H chain only; also called He Ab) heavy 1: not shown heavy 2: not shown light: DIVMTQSPLSLPVTPGEPASISCQASESLVHSNRNTYLHWYLQKPGQSPQLLIYKVSNRFSGVPDRFSGSGSGTDFTLKISRVEAEDVGVYYCSQNTHVPPTFGQGTKVEIERTVAAPSVFIFPPSDEQLKSGTASVVCLLNNFYPREAKVQWKVDNALQSGNSQESVTEQDSKDSTYSLSSTLTLSKADYEKHKVYACEVTHQGLSSPVTKSFNRGEC	1.45	108	74.5	–	–
GpH7-A5/GpH7-B3 variant S298_18N/GpL16-k0 (antibody, human IgG1, kappa, Heterodimerized anti-glypican-3 IgG1 (He Ab); mutation in the B3 H chain only; also called He Ab) heavy 1: not shown heavy 2: not shown light: DIVMTQSPLSLPVTPGEPASISCQASESLVHSNRNTYLHWYLQKPGQSPQLLIYKVSNRFSGVPDRFSGSGSGTDFTLKISRVEAEDVGVYYCSQNTHVPPTFGQGTKVEIERTVAAPSVFIFPPSDEQLKSGTASVVCLLNNFYPREAKVQWKVDNALQSGNSQESVTEQDSKDSTYSLSSTLTLSKADYEKHKVYACEVTHQGLSSPVTKSFNRGEC	1.28	61.6	48.1	–	–
GpH7-A5/GpH7-B3 variant Y300_11K/GpL16-k0 (antibody, human IgG1, kappa, Heterodimerized anti-glypican-3 IgG1 (He Ab); mutation in the B3 H chain only; also called He Ab) heavy 1: not shown heavy 2: not shown light: DIVMTQSPLSLPVTPGEPASISCQASESLVHSNRNTYLHWYLQKPGQSPQLLIYKVSNRFSGVPDRFSGSGSGTDFTLKISRVEAEDVGVYYCSQNTHVPPTFGQGTKVEIERTVAAPSVFIFPPSDEQLKSGTASVVCLLNNFYPREAKVQWKVDNALQSGNSQESVTEQDSKDSTYSLSSTLTLSKADYEKHKVYACEVTHQGLSSPVTKSFNRGEC	1.3	66.9	51.6	–	–
GpH7-A5/GpH7-B3 variant S298_20W/GpL16-k0 (antibody, human IgG1, kappa, Heterodimerized anti-glypican-3 IgG1 (He Ab); mutation in the B3 H chain only; also called He Ab) heavy 1: not shown heavy 2: not shown light: DIVMTQSPLSLPVTPGEPASISCQASESLVHSNRNTYLHWYLQKPGQSPQLLIYKVSNRFSGVPDRFSGSGSGTDFTLKISRVEAEDVGVYYCSQNTHVPPTFGQGTKVEIERTVAAPSVFIFPPSDEQLKSGTASVVCLLNNFYPREAKVQWKVDNALQSGNSQESVTEQDSKDSTYSLSSTLTLSKADYEKHKVYACEVTHQGLSSPVTKSFNRGEC	1.21	49.9	41.1	–	–
GpH7-A5/GpH7-B3 variant Y300_08L/GpL16-k0 (antibody, human IgG1, kappa, Heterodimerized anti-glypican-3 IgG1 (He Ab); mutation in the B3 H chain only; also called He Ab) heavy 1: not shown heavy 2: not shown light: DIVMTQSPLSLPVTPGEPASISCQASESLVHSNRNTYLHWYLQKPGQSPQLLIYKVSNRFSGVPDRFSGSGSGTDFTLKISRVEAEDVGVYYCSQNTHVPPTFGQGTKVEIERTVAAPSVFIFPPSDEQLKSGTASVVCLLNNFYPREAKVQWKVDNALQSGNSQESVTEQDSKDSTYSLSSTLTLSKADYEKHKVYACEVTHQGLSSPVTKSFNRGEC	1.47	108	73.6	–	–
GpH7-A5/GpH7-B3 variant S298_19Q/GpL16-k0 (antibody, human IgG1, kappa, Heterodimerized anti-glypican-3 IgG1 (He Ab); mutation in the B3 H chain only; also called He Ab) heavy 1: not shown heavy 2: not shown light: DIVMTQSPLSLPVTPGEPASISCQASESLVHSNRNTYLHWYLQKPGQSPQLLIYKVSNRFSGVPDRFSGSGSGTDFTLKISRVEAEDVGVYYCSQNTHVPPTFGQGTKVEIERTVAAPSVFIFPPSDEQLKSGTASVVCLLNNFYPREAKVQWKVDNALQSGNSQESVTEQDSKDSTYSLSSTLTLSKADYEKHKVYACEVTHQGLSSPVTKSFNRGEC	1.24	91	73.3	–	–
GpH7-A5/GpH7-B3 variant Y300_06M/GpL16-k0 (antibody, human IgG1, kappa, Heterodimerized anti-glypican-3 IgG1 (He Ab); mutation in the B3 H chain only; also called He Ab) heavy 1: not shown heavy 2: not shown light: DIVMTQSPLSLPVTPGEPASISCQASESLVHSNRNTYLHWYLQKPGQSPQLLIYKVSNRFSGVPDRFSGSGSGTDFTLKISRVEAEDVGVYYCSQNTHVPPTFGQGTKVEIERTVAAPSVFIFPPSDEQLKSGTASVVCLLNNFYPREAKVQWKVDNALQSGNSQESVTEQDSKDSTYSLSSTLTLSKADYEKHKVYACEVTHQGLSSPVTKSFNRGEC	1.24	105	84.3	–	–
GpH7-A5/GpH7-B3 variant Y300_02A/GpL16-k0 (antibody, human IgG1, kappa, Heterodimerized anti-glypican-3 IgG1 (He Ab); mutation in the B3 H chain only; also called He Ab) heavy 1: not shown heavy 2: not shown light: DIVMTQSPLSLPVTPGEPASISCQASESLVHSNRNTYLHWYLQKPGQSPQLLIYKVSNRFSGVPDRFSGSGSGTDFTLKISRVEAEDVGVYYCSQNTHVPPTFGQGTKVEIERTVAAPSVFIFPPSDEQLKSGTASVVCLLNNFYPREAKVQWKVDNALQSGNSQESVTEQDSKDSTYSLSSTLTLSKADYEKHKVYACEVTHQGLSSPVTKSFNRGEC	1.35	93.5	69.2	–	–
GpH7-A5/GpH7-B3 variant A327_12R/GpL16-k0 (antibody, human IgG1, kappa, Heterodimerized anti-glypican-3 IgG1; mutation in the GpH7-B3 chain only; also called He Ab) heavy 1: not shown heavy 2: not shown light: DIVMTQSPLSLPVTPGEPASISCQASESLVHSNRNTYLHWYLQKPGQSPQLLIYKVSNRFSGVPDRFSGSGSGTDFTLKISRVEAEDVGVYYCSQNTHVPPTFGQGTKVEIERTVAAPSVFIFPPSDEQLKSGTASVVCLLNNFYPREAKVQWKVDNALQSGNSQESVTEQDSKDSTYSLSSTLTLSKADYEKHKVYACEVTHQGLSSPVTKSFNRGEC	–	–	–	2.15	19.3 % of control
